Reference: the supplement of paper PMC10567573
± gives the standard deviation.

Experiment: protein stability index of a GFP-peptide fusion (GPS, HEK-293T) (PSI 1-6); higher = more stable
[1] = treatment: DMSO, c terminus: a fixed tail appended
[2] = treatment: MLN4924 1 uM, 8 h, c terminus: a fixed tail appended
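Also: 24-mer peptide tiles fused after GFP, lentivirally expressed, FACS-sorted into six equal bins by GFP/DsRed ratio, decoded by Illumina sequencing, PSI is the read-weighted mean bin number.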

Sequence	protein stability index [1]	protein stability index [2]	protein stability index (treatment: DMSO, c terminus: native)	protein stability index (treatment: MLN4924 1 uM, 8 h, c terminus: native)
ESTTVVTTQSAEVGAAETTLTELR [KRT18]	5.37 ± 0.076	5.29 ± 0.22	–	–
ETDHLSMEEEDPMPRQISRQSSVT [TPRG1]	5.37 ± 0.21	5.28 ± 0.36	–	–
ETEKEEEEEDREEEDENGLPRRRG [NEUROD6]	5.815 ± 0.053	5.62 ± 0.39	–	–
ETLKHIKATEPTETVQTWIELLTG [GOLPH3L]	2.59 ± 0.2	2.86 ± 0.22	–	–
ETQTLTGWSKGFIGMHREMQVNPI [RHOBTB1]	2.89 ± 0.26	3.12 ± 0.23	–	–
ETRRRMEMAFNTRCKEENTIILQQ [NLN]	2.66 ± 0.36	2.98 ± 0.23	–	–
ETWNPFKLQYQLRNVRERIAKNLV [GOLPH3L]	2.37 ± 0.34	2.37 ± 0.24	–	–
EVALDKGCSQFRLAVLDWNQRAMD [SAT2]	2.94 ± 0.48	2.95 ± 0.28	–	–
EVRLVPVSFEDPEFKSSFSQSFSL [ATE1]	2.56 ± 0.41	2.74 ± 0.39	–	–
FACLSVLFVTVTAVNLSVSTLPSL [KCNG1]	3.15 ± 0.28	3.46 ± 0.23	–	–
FAIPVGSGLGYIAGSKVKDMAGDW [SPNS1]	2.35 ± 0.28	2.21 ± 0.44	–	–
FAPFIVYYFIMACDQYSCALTGPV [DHCR7]	3.01 ± 0.077	3.2 ± 0.2	–	–
FEMLSGFPPFFDDNPFGIYQKILA [PRKX]	2.47 ± 0.45	2.29 ± 0.3	–	–
FFYDCSNNPISEHFHPTVIGESMY [TENT5C]	2.16 ± 0.43	2.26 ± 0.16	–	–
FGGMKSSGIGREGAKDSYDFFTEI [ALDH8A1]	2.22 ± 0.66	2.52 ± 0.27	–	–
FGMAKIDNLLQEMLLGGSPSDAPH [HNF4A]	2.8 ± 0.25	2.76 ± 0.28	–	–
FGRLVANVLKSYIGLGHIYSGTFA [CLCN6]	2.94 ± 0.42	2.79 ± 0.33	–	–
FHCLWDDSFPEGPERLHAIKEQLI [HDAC6]	2.47 ± 0.26	2.41 ± 0.33	–	–
FHEDGPQGPGGDEDDDEEDTDKLL [PSD2]	5.55 ± 0.32	5.59 ± 0.2	–	–
FIARLQGSILQFNPEVGIFVSIAQ [SMG5]	2.77 ± 0.59	2.64 ± 0.45	–	–
FISVFSNLLESKADGIEVSYNACG [ZER1]	2.3 ± 0.49	2.17 ± 0.17	–	–
FIVDILQFLDIGPDVTRVGLLQYG [MATN2]	3.11 ± 0.51	2.94 ± 0.82	–	–
FLCDLYPLLKLACTNTYVTGLSMI [OR4A15]	2.82 ± 0.23	3.25 ± 0.45	–	–

Sequence	protein stability index [1]	protein stability index [2]	protein stability index (treatment: DMSO, c terminus: native)	protein stability index (treatment: MLN4924 1 uM, 8 h, c terminus: native)
FLKAVLRQERVSLYPFQIHSIALS [CDS1]	2.01 ± 0.23	2.42 ± 0.91	–	–
FMRTSVKISYIGLMTQSSLETHHY [TMEM106C]	3.07 ± 0.75	2.63 ± 0.38	–	–
FNCIRAAIAPFQSAGSPPELQGLP [NET1]	2.67 ± 0.2	2.72 ± 0.2	–	–
FNLTPPICEQAEYHMFQREKVEVQ [KCNAB2]	3.72 ± 0.24	3.88 ± 0.17	–	–
FPVSVTQQSPAAVSMETYHVTLTL [C2CD2L]	3.29 ± 0.38	2.9 ± 0.36	–	–
FRVAKKRAPKVLGTTLVVGLLAGV [GDAP1]	2.47 ± 0.86	1.82 ± 0.61	–	–
FSGTPPPPVLSFRLVHTTAIEHFQ [FCHO1]	2.32 ± 0.24	2.28 ± 0.19	–	–
FSKQIVLRGKSIKRAPGEETEKEE [NEUROD6]	4.94 ± 0.28	5.1 ± 0.34	–	–
FSSNIHTYHVGKQCFFNGVFLGNK [SPATS1]	2.56 ± 0.39	2.05 ± 0.32	–	–
FVKDPQGRIIAVFKPKNEEPYGHL [PI4K2A]	2.32 ± 0.26	2.9 ± 0.23	–	–
FYMRTNPFYPEVELNFISVFWPQL [MMP1]	3.11 ± 0.38	2.89 ± 0.25	–	–
FYTAITKKIFKSHLKSSRNSTSVK [P2RY14]	2.18 ± 0.33	2.32 ± 0.55	–	–
GAARLALLQGAGLDVERWLKPAMT [FCHSD1]	2.5 ± 0.53	2.45 ± 0.36	–	–
GAHWMRQLVSFQKLKLTNNHLDPF [TBX5]	2.18 ± 0.21	2.19 ± 0.45	–	–
GAQFEGEKGRALQIRDWRGGRLEN [ZSWIM9]	4.24 ± 0.23	3.87 ± 0.57	–	–
GARPLSTRVPRAAIVFTDGRAQDD [MATN2]	–	4.48 ± 0.68	–	–
GASDNSIIMWDIGGRKGRTLLLQG [WDFY1]	2.15 ± 0.36	2.19 ± 0.35	–	–
GATGECQNFLDPGYPLPKLDMNFS [ZNF449]	3.47 ± 0.2	3.67 ± 0.29	–	–
GCCKRRYLQKIEEFAEMVEREEED [KCNG1]	3.57 ± 0.23	4 ± 0.53	–	–
GCQPEDRRRRIIINVGGIKYSLPW [KCNG1]	2.36 ± 0.52	2.5 ± 0.44	–	–
GDWSAFNQAPSGPVASSGEFFGSA [CLINT1]	4.16 ± 0.26	4.31 ± 0.18	–	–
GGAAWSIGAAPFSGRRNWCSYVVT [EMID1]	1.94 ± 0.58	2.08 ± 0.095	–	–
GGAVVANYPYDKSFEHRVRGVRRT [CPN1]	4.25 ± 0.29	4.29 ± 0.15	–	–

Sequence	protein stability index [1]	protein stability index [2]	protein stability index (treatment: DMSO, c terminus: native)	protein stability index (treatment: MLN4924 1 uM, 8 h, c terminus: native)
GGSSAVGQFVSLDGAGKTPTLGGG [BRF1]	4.34 ± 0.49	4.82 ± 0.33	–	–
GGTLFSLEEGSSFWNQGLTWKVLF [CLCN6]	2.7 ± 0.46	2.6 ± 0.81	–	–
GGYNLASVSVWDLAAPSLHVKEQL [TLE6]	2.38 ± 0.16	2.68 ± 0.33	–	–
GHNFCRGCVSRCWEVQVSPTCPVC [TRIM35]	3.86 ± 0.22	3.83 ± 0.38	–	–
GHSHHSHHGHPSHQSHSLPNRRH [C10orf62]	–	–	2.97 ± 0.49	3.71 ± 0.35
GIFLFCVCVIAIGVVQALIVGYAF [TMEM175]	2.6 ± 0.56	2.33 ± 0.56	–	–
GISAKVFGATTNYGKDIVKACSLL [ZBED1]	2.33 ± 0.4	2.26 ± 0.35	–	–
GISNALHRLKLRLAIQEMVSLTSP [PPFIA4]	2.46 ± 0.22	2.18 ± 0.13	–	–
GKAAQAGVAVGDWVLSIDGENAGS [PDLIM7]	3.97 ± 0.24	4.2 ± 0.42	–	–
GLAANGALQRLDLRNNQISHKGAE [LRRC45]	4.23 ± 0.4	4.57 ± 0.18	–	–
GLWGTTLTENTAENRELYIKTTLR [PKD2L1]	3.19 ± 0.15	3.2 ± 0.17	–	–
GMNGQMLCNLGKERFLELAPDFVG [ETS2]	2.89 ± 0.32	2.91 ± 0.21	–	–
GMRRKSLLTRKVICKSDAPTGDVL [GOLPH3]	3.51 ± 0.18	3.53 ± 0.52	–	–
GNEKSIIDCKFNAESQGCNHEEDA [LOXL2]	5.65 ± 0.23	5.57 ± 0.47	–	–
GPDHRLRLWRLFQTLDVNRDGGLC [SLC25A25]	2.29 ± 0.11	2.23 ± 0.22	–	–
GPMMKLKRHFVAQKYKKQIDHMYH [ACSBG2]	2.1 ± 0.14	2.42 ± 0.37	–	–
GPPHARISQHGDPLLSNTFTETNN [EMID1]	4.31 ± 0.13	4.748 ± 0.028	–	–
GQPAPVSMVPPSPAMAASKALGSD [SNAP91]	5.02 ± 0.32	5.01 ± 0.18	–	–
GQQSDTAQLELYQLQVESNSSQLL [SCARA5]	4.12 ± 0.13	4.16 ± 0.15	–	–
GRGNFPTLEITLKDIVQTVRSRLE [TENT5C]	2.65 ± 0.36	2.31 ± 0.2	–	–
GRLIQLSRDGATGHVLLTDSEFSM [PPFIA4]	2.24 ± 0.22	2.17 ± 0.46	–	–
GRSSLTACSLPLCACLLGQKMLRH [PXN]	2.32 ± 0.28	2.19 ± 0.16	–	–
GRTPLIKLSPKKTWEGFIGGFFAT [CDS2]	1.91 ± 0.24	2.09 ± 0.55	–	–

Sequence	protein stability index [1]	protein stability index [2]	protein stability index (treatment: DMSO, c terminus: native)	protein stability index (treatment: MLN4924 1 uM, 8 h, c terminus: native)
GSAPFLFLSLACARGSIVATYIFI [SPNS1]	3.15 ± 0.53	2.9 ± 0.46	–	–
GSAYLFVESSLDKVVLSDAYAHPQ [TRADD]	2.22 ± 0.35	2.37 ± 0.54	–	–
GSFNGSEKETMQFLNDRLANYLEK [KRT36]	3.38 ± 0.28	3.58 ± 0.3	–	–
GSKQYSAAIAFTLALFSHLVNHVN [SMG5]	3.39 ± 0.34	3.14 ± 0.43	–	–
GSYTVQSELGDYDPDECGSDYISE [EPB41L3]	4.83 ± 0.48	5.2 ± 0.22	–	–
GTDLPLSEIPRGVRVALDYEAGQV [TRIM15]	4.33 ± 0.25	4.46 ± 0.22	–	–
GTDVTRCICGFTHDDGYMICCDKC [KMT2E]	5 ± 0.2	5.07 ± 0.12	–	–
GTGRSAKEQVLRKGTENLQRAQAE [FCHSD1]	5.09 ± 0.19	5.02 ± 0.4	–	–
GTIFIRNVLLFKKQNPGKFCLLSC [RETREG3]	2.7 ± 0.6	2.89 ± 0.34	–	–
GTLDCISMALTCTFNRWGTLLAVG [RBBP5]	3.2 ± 0.3	3.24 ± 0.59	–	–
GVDWEHIRERPAAIPIEIKSIDDT [STK38L]	4.68 ± 0.25	4.99 ± 0.27	–	–
GWPHEDAAQFTDFLIPMLEMVPEK [SRPK2]	3.83 ± 0.26	4.01 ± 0.1	–	–
GYSIKVFDFERSGLQHAPEPDAAD [SMAD6]	4.26 ± 0.37	4 ± 0.17	–	–
HARLSDIWAKTPPITRKAAQLYTL [DHCR7]	2.29 ± 0.22	2.3 ± 0.29	–	–
HASKCEFLANLHITALLNVSRRTS [DUSP5]	2.2 ± 0.2	2.33 ± 0.22	–	–
HDQCKCENLIMFQNLANEEVRKLT [MATN2]	3.13 ± 0.25	3.58 ± 0.28	–	–
HEEEVKGLQAQIASSGLTVEVDAP [KRT18]	5.51 ± 0.23	5.45 ± 0.27	–	–
HEMVAHRHRQEVLCKEMVPLAEQT [ZSCAN9]	4.42 ± 0.2	4.41 ± 0.19	–	–
HGAVTVGGTSVGSLGVPGSVGGVP [ZBTB22]	4.02 ± 0.61	4.06 ± 0.37	–	–
HGNLSEEAAKQMRSRGKVLKTKDG [CPOX]	5.22 ± 0.2	5.41 ± 0.2	–	–
